Experimental data published in patent publication US10227388B2, “Peptides and combination of peptides for use in immunotherapy against non-small cell lung cancer and other cancers” (immatics biotechnologies GmbH, priority 2015, dated 2019).

Target: HLA-A*02:01 (Homo sapiens, UniProt P04439, D140Y/D185E/D98H/E176V/E277Q/G131W/G231S/I119V/I121R/I166T/I218V/L300P/L318F/N151K/N90K/P208A/P217A/Q86G/Q94H/R138H/R169H/T345S)
Test: MHC binding assay (UV-ligand exchange, ELISA, peptide exchange yield)
Settings: binding of HLA-class I restricted peptides to HLA-A*02:01
Method in brief: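 Peptide–HLA-A*02:01 complexes made by UV-ligand exchange of a UV-cleavable peptide for the test peptide. Exchange yield measured by ELISA: 100-fold diluted monomers captured on streptavidin, 1 h at 37° C., detected with HRP anti-β2m and TMB, absorbance at 450 nm.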

| Peptide exchange (MHC class I binding score, peptide exchange yield) | Substance |
| --- | --- |
| ″++″ (≥20% = ++) | 355 (SIQQSIERLLV; listed as Homo sapiens) [compound 355] |
| ″+++″ (≥50% = +++) | 518 (KLNAEVACV; listed as Homo sapiens) [compound 518] |
| ″+++″ (≥50% = +++) | 497 (GLLEKLTAI; listed as Homo sapiens) [compound 497] |
| ″+++″ (≥50% = +++) | 364 (LLQNEQFEL; listed as Homo sapiens) [compound 364] |
| ″+++″ (≥50% = +++) | 76 (ILIDSIYKV; listed as Homo sapiens) [compound 76] |
| ″+++″ (≥50% = +++) | 248 (FLFPNQYVDV; listed as Homo sapiens) [compound 248] |
| ″++″ (≥20% = ++) | 217 (ALIHPVSTV; listed as Homo sapiens) [compound 217] |
| ″++++″ (≥75% = ++++) | 358 (ALDEYTSEL; listed as Homo sapiens) [compound 358] |
| ″+++″ (≥50% = +++) | 110 (FLSQVDFEL; listed as Homo sapiens) [compound 110] |
| ″+++″ (≥50% = +++) | 202 (ALLDQQGSRWTL; listed as Homo sapiens) [compound 202] |
| ″+++″ (≥50% = +++) | 282 (LLADVVPTT; listed as Homo sapiens) [compound 282] |
| ″++++″ (≥75% = ++++) | 339 (GLWEIENNPTVKA; listed as Homo sapiens) [compound 339] |
| ″+++″ (≥50% = +++) | 163 (ALDEMGDLLQL; listed as Homo sapiens) [compound 163] |
| ″++++″ (≥75% = ++++) | 77 (ILVEADGAWVV; listed as Homo sapiens) [compound 77] |
| ″+++″ (≥50% = +++) | 244 (SLFGGTEITI; listed as Homo sapiens) [compound 244] |
| ″++″ (≥20% = ++) | 402 (VLFSGALLGL; listed as Homo sapiens) [compound 402] |
| ″+++″ (≥50% = +++) | 359 (YLLPESVDL; listed as Homo sapiens) [compound 359] |
| ″+++″ (≥50% = +++) | 285 (QLLHVGVTV; listed as Homo sapiens) [compound 285] |
| ″+++″ (≥50% = +++) | 383 (ALLELENSVTL; listed as Homo sapiens) [compound 383] |
| ″+++″ (≥50% = +++) | 107 (FLQPVDDTQHL; listed as Homo sapiens) [compound 107] |
| ″+++″ (≥50% = +++) | 477 (ALLPASGQIAL; listed as Homo sapiens) [compound 477] |
| ″+++″ (≥50% = +++) | 194 (ALPLFVITV; listed as Homo sapiens) [compound 194] |

| Peptide exchange (MHC class I binding score, peptide exchange yield) | Substance |
| --- | --- |
| ″+++″ (≥50% = +++) | 454 (KLPPPPPQA; listed as Homo sapiens) [compound 454] |
| ″++++″ (≥75% = ++++) | 387 (ALFQATAEV; listed as Homo sapiens) [compound 387] |
| ″++″ (≥20% = ++) | 81 (FLFSQLQYL; listed as Homo sapiens) [compound 81] |
| ″+++″ (≥50% = +++) | 103 (TLAEEVVAL; listed as Homo sapiens) [compound 103] |
| ″+++″ (≥50% = +++) | 571 (LLLTTIPQI; listed as Homo sapiens) [compound 571] |
| ″+++″ (≥50% = +++) | 205 (SLYPGTETMGL; listed as Homo sapiens) [compound 205] |
| ″++++″ (≥75% = ++++) | 337 (HLLSELEAAPYL; listed as Homo sapiens) [compound 337] |
| ″+++″ (≥50% = +++) | 623 (YLVEDIQHI; listed as Homo sapiens) [compound 623] |
| ″+++″ (≥50% = +++) | 69 (FQLDPSSGVLVTV; listed as Homo sapiens) [compound 69] |
| ″+++″ (≥50% = +++) | 437 (SMAPGLVIQAV; listed as Homo sapiens) [compound 437] |
| ″++″ (≥20% = ++) | 270 (LLLDEEGTFSL; listed as Homo sapiens) [compound 270] |
| ″++++″ (≥75% = ++++) | 602 (YLLEQIKLIEV; listed as Homo sapiens) [compound 602] |
| ″+++″ (≥50% = +++) | 537 (TLAPGEVLRSV; listed as Homo sapiens) [compound 537] |
| ″++″ (≥20% = ++) | 221 (ALYEEGLLL; listed as Homo sapiens) [compound 221] |
| ″+++″ (≥50% = +++) | 564 (TVTNAVVTV; listed as Homo sapiens) [compound 564] |
| ″+++″ (≥50% = +++) | 493 (GLLGEKTQDLIGV; listed as Homo sapiens) [compound 493] |
| ″+++″ (≥50% = +++) | 271 (LVYPLELYPA; listed as Homo sapiens) [compound 271] |
| ″++++″ (≥75% = ++++) | 553 (SLLNQDLHWSL; listed as Homo sapiens) [compound 553] |
| ″++″ (≥20% = ++) | 461 (VMFRTPLASV; listed as Homo sapiens) [compound 461] |
| ″+++″ (≥50% = +++) | 225 (SLLKVLPAL; listed as Homo sapiens) [compound 225] |
| ″++″ (≥20% = ++) | 375 (SLTETIEGV; listed as Homo sapiens) [compound 375] |
| ″++″ (≥20% = ++) | 21 (VLDELDMEL; listed as Homo sapiens) [compound 21] |

| Peptide exchange (MHC class I binding score, peptide exchange yield) | Substance |
| --- | --- |
| ″+++″ (≥50% = +++) | 557 (KLYDDMIRL; listed as Homo sapiens) [compound 557] |
| ″+++″ (≥50% = +++) | 378 (ALGYFVPYV; listed as Homo sapiens) [compound 378] |
| ″++″ (≥20% = ++) | 381 (FIDEAYVEV; listed as Homo sapiens) [compound 381] |
| ″+++″ (≥50% = +++) | 142 (FLFATPVFI; listed as Homo sapiens) [compound 142] |
| ″+++″ (≥50% = +++) | 280 (VLPDPEVLEAV; listed as Homo sapiens) [compound 280] |
| ″+++″ (≥50% = +++) | 350 (ALLDVTHSELTV; listed as Homo sapiens) [compound 350] |
| ″+++″ (≥50% = +++) | 264 (SLQEQLHSV; listed as Homo sapiens) [compound 264] |
| ″+++″ (≥50% = +++) | 152 (ILFEDIFDV; listed as Homo sapiens) [compound 152] |
| ″++″ (≥20% = ++) | 253 (GLDAATATV; listed as Homo sapiens) [compound 253] |
| ″+++″ (≥50% = +++) | 390 (ALFMKQIYL; listed as Homo sapiens) [compound 390] |
| ″++″ (≥20% = ++) | 127 (KIGDEPPKV; listed as Homo sapiens) [compound 127] |
| ″+++″ (≥50% = +++) | 90 (TLLQIIETV; listed as Homo sapiens) [compound 90] |
| ″+++″ (≥50% = +++) | 508 (ILAQEQLVVGV; listed as Homo sapiens) [compound 508] |
| ″+++″ (≥50% = +++) | 572 (ALADLIEKELSV; listed as Homo sapiens) [compound 572] |
| ″+++″ (≥50% = +++) | 356 (KLLGKLPEL; listed as Homo sapiens) [compound 356] |
| ″++++″ (≥75% = ++++) | 53 (KMIETDILQKV; listed as Homo sapiens) [compound 53] |
| ″++″ (≥20% = ++) | 31 (YLAPELFVNV; listed as Homo sapiens) [compound 31] |
| ″+++″ (≥50% = +++) | 129 (GLLDGGVDILL; listed as Homo sapiens) [compound 129] |
| ″++++″ (≥75% = ++++) | 100 (YLLSTNAQL; listed as Homo sapiens) [compound 100] |
| ″+++″ (≥50% = +++) | 215 (QLINHLHAV; listed as Homo sapiens) [compound 215] |
| ″++++″ (≥75% = ++++) | 621 (VLMDRLPSLL; listed as Homo sapiens) [compound 621] |
| ″+++″ (≥50% = +++) | 281 (ILRESTEEL; listed as Homo sapiens) [compound 281] |
